Source: patent US12358963B2, “Regenerative polypeptides and uses thereof” (Juvena Therapeutics, Inc., priority 2019, dated 2025)

Key:
human chondrocyte = test: Human chondrocyte proliferation (% EdU+); format: cell-based; settings: 48h, vehicle 0.744
Experimental: Chondrocytes were cultured for 48h in the presence of FGF17 at indicated dose. FGF18 was added at 0.1 ug/mL as a positive control. Fresh media and FGF17 was added every 24h. Table of % EdU+ chondrocyte and p-values depicted. Mean∓S.D. (*p<0.05 by Tukey Honest Significant Difference T-test, n=2-3)

[1] = test system: aged human myoblast cell lines; test: Myogenic gene RNA expression in aged human myoblasts by real-time qPCR; format: cell-based
Experimental: (§1) Myogenic gene RNA expression (fold change to FM) in response to vehicle (FM) in mouse myoblast cell lines monitored by real-time qPCR. Myoblast were cultured 48h in fusion media. Mean±SD. n=3. (Y,Z) Differential induction of myogenic gene expression by FGF17 in human myoblast myoblasts. Quantitation table of myogenic gene RNA expression (fold change to FM-fusion media (DMEM+2% horse serum)) in response to FM or rh-FGF17 in aged human myoblast cell lines by real-time qPCR. Myoblast were cultured (B) 48 hours or (C) 72 hours in FM. Mean∓SD. n=3.
(§2) RNA was isolated from each well (RNeasy Mini Kit, Qiagen) and cDNA was obtained by reverse-transcription (High Capacity Reverse Transcription Kit, Thermo Fisher Scientific). Real-time quantitative PCR was performed using QuantStudio3 (Thermo Fisher).
Aged human myoblasts were cultured in well plates. […] Cells that had been cultured with IGF2 had increases in levels of MYOG at 48 hours and levels of MYOD at 72 hours.

[2] = test system: mouse myoblast cell lines; test: Myogenic gene RNA expression in mouse myoblasts by real-time qPCR; format: cell-based; settings: 48h in fusion media
Experimental: as §1, §2

78 weeks old mice = test: BaCl2 muscle injury in old mice, intramuscular FGF17; format: in vivo, mouse; settings: FGF17 500 ng/mL intramuscular 2h and 48h after BaCl2 injury
Experimental: FIG. 16A) Experiment overview. Intramuscular injection of 1.2% of BaCl2 (7 ul/TA) was used to generate chemical injury in the TAs of 78 weeks old mice. FGF17 (500 ng/mL) was administered via intramuscular injection after 2h and 48h of muscle injury. FIG. 16B) Quantification of the regenerative index calculated as the number of newly regenerated fibers per mm 2 of injury area. Regenerated fibers were identified as fibers with central nuclei,****p<0.0001 (unpaired t-test). FIG. 16C) Histogram showing the fibrotic index calculated as the percentage of the fibrotic area. *p=0.0186 (unpaired t-test).

human myoblast = test: Human myoblast proliferation (nuclei counts, EdU counts); format: cell-based; settings: 72h; for Nuclei Counts: vehicle 2083.5
Experimental: (§3) FIG. 5A) Bar graph quantitation of % EdU+ mouse myoblast in response to BMP7. Myoblast were cultured 48h in the presence of BMP7 at indicated dose. Fresh media and BMP7 was added every 24h, followed by 2 hour EdU pulse and fixation. Mean∓S.D. Significant p-values (Vehicle˜BMP7 0.025 ug/mL: 1.21E-07, Vehicle˜BMP7 0.075 ug/mL: 8.05E-07, Vehicle˜BMP7 0.2255 ug/mL: 3.37E-03, Vehicle˜BMP7 0.9 ug/mL: 4.99E-02). FIG. 5B) Bar graph quantitation of % EdU+ human myoblast (person) in response to BMP7. Myoblast were cultured 72h in the presence of BMP7 at indicated dose. Cells were pulsed with EdU for 4 hours before fixation. Mean∓S.D. Significant p-values (Vehicle˜BMP7 1.56 ng/mL: 0.04). (*p<0.05 by Welch's One-Tailed T-test, n=2)
Bar graph of total EdU+ mouse myoblast cells compared per condition. Myoblast were cultured 48h in the presence of indicated factors. Fresh media and factors were added every 24h, followed by 2 hour EdU pulse and fixation. Mean∓Standard Deviation(SD) Table quantitation of EdU counts per field and p-values for mouse assay (*p<0.05 by Student's One-Tailed T-Test of increased activity, n=3-6, Synergy values <1 are evidence of effect). Bar graph of total EdU+ human myoblast cells per condition. Myoblast were cultured 72h in the presence of indicated factors, followed by 4 hour EdU pulse and fixation. Fresh media and factors were added every 24h. Mean∓Standard Deviation(SD). Table quantitation of +EdU counts and p-values for human assay. (*p<0.05 by Student's One-Tailed T-Test of increased activity, n=3-6, Synergy values <1 are evidence of effect)

mouse myoblast cells = test: Mouse myoblast proliferation assay (EdU); format: cell-based; settings: for % EdU / Ave. + EdU Count: 48h; for Ave. + EdU Count: FM 165
Experimental: as §3
FIG. 6A) Bar graph of % EdU+ mouse myoblast cells compared to vehicle. Mouse myoblast were cultured 48h in the presence of indicated factors, followed by a 2 hour EdU pulse prior to fixation. Mean∓S.D. Significant p-values (FM˜BMP7: 0.008 ug/mL: 3.17E-02, FM˜Leucine: 300 uM BMP7: 0.008 ug/mL: 2.77E-03, FM˜Leucine: 100 uM BMP7: 0.008 ug/mL: 3.72E-05, FM˜Leucine: 900 uM BMP7: 0.008 ug/mL: 2.52E-03). (*p<0.05 by One-Way ANOVA Tukey Honest Significant Difference, n=2-6)
FIG. 7A: Bar graph of % EdU+ mouse myoblast cells compared to vehicle. Mouse myoblast were cultured 48h in the presence of indicated factors. EdU pulse and fixation. Mean∓S.D. (*p<0.05 by Student's One-Tailed T-Test of increased activity, n=2-6)
FIG. 10A) The suspension CHO cells were transiently transfected with either the empty control plasmid or the FGF17-hFcm encoding plasmid. After four days, the culture supernatants were collected and added into the culture of mouse myoblast cells for 48 hours, followed by a 2 hour EdU pulse prior to fixation. […] FIG. 10B) The suspension CHO cells were transiently transfected with the FGF17-hFcm encoding plasmid. After four days, the culture supernatants were collected and FGF17-hFcm was affinity-purified by Protein A membrane column. The purified FGF17-hFcm was added into the culture of mouse myoblast cells for 48 hours, followed by a 2 hour EdU pulse and fixation.
(§4) FIG. 11A: SDS-PAGE of culture supernatants from CHO cells transiently transfected with FGF17-hFcm or its mutants encoding plasmids (FGF17d181-216-hFcm, FGF17d204-216-hFcm, FGF17R204QK207Q-hFcm). The expressed FGF17-hFcm proteins and the mutant proteins were indicated by the white arrowheads. FIG. 11B) The culture supernatants from CHO cells transiently transfected with different FGF17 encoding plasmids were added into the culture of mouse myoblast cells for 48 hours followed by 2 hour EdU pulse and fixation.
as §4, with “12A)” for “11A:”, “(FGF17d197-216-hFcm, FGF17K191AK193AS200A-hFcm).” for “(FGF17d181-216-hFcm, FGF17d204-216-hFcm, FGF17R204QK207Q-hFcm).”, “12B)” for “11B)”, “hours,” for “hours”
(§5) FIG. 14A: Bar graph of % EdU+ mouse myoblast cells compared to vehicle. Myoblast were cultured 48h in the presence of indicated factors. Fresh media and factors were added every 24h, followed by 2 hour EdU pulse and fixation. Mean∓S.D. Table quantitation of % EdU and p-values (*p<0.05 by One-Way ANOVA Tukey Honest Significant Difference, n=2-6)
as §5, with “15A:” for “14A:”, “p-values shown.” for “p-values”, “Student's One-Tailed T-Test of increased activity,” for “One-Way ANOVA Tukey Honest Significant Difference,”
Bar graph of total EdU+ mouse myoblast cells compared per condition. Myoblast were cultured 48h in the presence of indicated factors. […]

12 weeks old mice = test: Dexamethasone induced muscle atrophy, FGF17; format: in vivo, mouse; settings: Dexamethasone 25 mg/kg i.p. 20 days; FGF17 0.5 mg/kg subcutaneous
Experimental: FIG. 17A) Experiment overview and groups. […] Muscle weight was assessed on Day 21. Forelimb grip strength and both limb grip strength were measured on Day 7, 13 and 21 FIG. 17B) TAs muscle weight over initial body weight shown as the percentage change from vehicle. ***p=0.0005, *p=0.0499. […] One way Anova corrected for multiple comparisons using Tukey method was used to compare data.
The experimental design is C57BL/6J male mice with daily administration of Vehicle, N=7; dexamethasone (25 mg/kg i.p.), N=6, or dexamethasone+treatment article, N=6, for 20 days. This design can be used to test any single factor identified and validated in in vitro assays or complex mixtures of 2 or more factors.
On day 21, animals are sacrificed, and animal weight recorded. 0.5 ml of blood is collected via cardiac puncture and processed to plasma for storage of plasma samples at −80° C. The animals are perfused with 1×PBS. After carefully dissecting the skin from the GA/TA muscles of each hind leg, photos are taken, followed by excision of exclusively the GA or TA muscle, weighing the muscles, then flash freezing in isopentane at −80 C.

DM1 human myoblast = test: Gene expression fold change in DM1 human myoblast; format: cell-based; settings: 48h; BMP7 50 ng/mL, Butyrate 100 nM, IGF2 200 ng/mL; FM 1.000

B1: FGF18: FGF18 added at 0.1 ug/mL as a positive control (protein, UniProt O76093 28-207, looked up)
Fibroblast growth factor 18: EENVDFRIHVENQTRARDDVSRKQLRLYQLYSRTSGKHIQVLGRRISARGEDGDKYAQLLVETDTFGSQVRIKGKETEFYLCMNRKGKLVGKPDGTSKECVFIEKVLENNYTALMSAKYSGWYVGFTKKGRPRKGPKTRENQQDVHFMKRYPKGQPELQKPFKYTTVTKRSRRIRPTHPA
- % EdU (human chondrocyte; 0.1 ug/mL): 6.039%

B2: FGF17: FGF17 polypeptide, FGFR agonist (protein, listed as Homo sapiens)
chain: TQGENHPSPNFNQYVRDQGAMTDQLSRRQIREYQLYSRTSGKHVQVTGRRISATAEDGNKFAKLIVETDTFGSRVRIKGAESEKYICMNKRGKLIGKPSGKSKDCVFTEIVLENNYTAFQNARHEGWFMAFTRQGRPRQASRSRQNQREAHFIKRLYQGQLPFPNHAEKQKQFEFVGSAPTRRTKRTRRPQPLT
- MYOD1 RNA expression (fold change to FM) ([1]; 48 hr, FM 1.001): 0.604
- MYOG RNA expression (fold change to FM) ([1]; 48 hr, FM 1.013): 2.353
- MYF5 RNA expression (fold change to FM) ([1]; 48 hr, FM 1.04): 1.922
- MYF5 RNA expression (fold change to FM) ([1]; 72 hr, FM 1.023): 0.499
- MYOD1 RNA expression (fold change to FM) ([1]; 72 hr, FM 1.055): 1.627
- MYOG RNA expression (fold change to FM) ([1]; 72 hr, FM 1.092): 13.124
- Myf5 RNA expression (fold change to FM), Mean ([2]; FM 1.002): 1.376
- Myod1 RNA expression (fold change to FM), Mean ([2]; FM 1.002): 1.230
- Pax7 RNA expression (fold change to FM), Mean ([2]; FM 1.011): 6.118
- Fibrotic index (78 weeks old mice): reducing fibrosis
- Muscle regeneration (regenerative index) (78 weeks old mice): Promoted the Regeneration of Muscle
- Ave. + EdU Counts (human myoblast; FGF17 0.1 ug/mL, FM 205): 349
- % EdU (mouse myoblast cells; FGF17 0.0062 ug/mL, vehicle 3.14): 4.81%
- Ave. + EdU Count (mouse myoblast cells; FGF17 0.01 ug/mL): 476
- % EdU (mouse myoblast cells; FGF17 0.0125 ug/mL, vehicle 3.14): 3.02%
- % Edu (mouse myoblast cells; FGF17 0.025 ug/mL, 48h (HA experiment), FM 11.162): 17.870%
- % EdU (mouse myoblast cells; FGF17 0.025 ug/mL, vehicle 3.14): 3.85%
- Ave. + EdU Count (mouse myoblast cells; FGF17 0.1 ug/mL): 1618
- Muscle atrophy (muscle weight, forelimb and both limb force) (12 weeks old mice): Protects Against Dexamethasone Induced Muscle Atrophy
- % EdU (human chondrocyte; 0.1 ug/mL): 4.675%
- % EdU (human chondrocyte; 0.20 ug/mL): 9.085%
- % EdU (human chondrocyte; 0.40 ug/mL): 16.773%

B3: BMP7: BMP7 polypeptide, BMP receptor agonist (protein, UniProt P18075 293-431, looked up)
Bone morphogenetic protein 7: STGSKQRSQNRSKTPKNQEALRMANVAENSSSDQRQACKKHELYVSFRDLGWQDWIIAPEGYAAYYCEGECAFPLNSYMNATNHAIVQTLVHFINPETVPKPCCAPTQLNAISVLYFDDSSNVILKKYRNMVVRACGCH
- Nuclei Counts (human myoblast; BMP7 0.78 ng/mL, donor): 2144.5
- Nuclei Counts (human myoblast; BMP7 1.56 ng/mL): 2552.5
- Nuclei Counts (human myoblast; BMP7 3.12 ng/mL): 2408
- Nuclei Counts (human myoblast; BMP7 6.25 ng/mL): 2422.5
- Nuclei Counts (human myoblast; BMP7 12.5 ng/mL): 2706
- Nuclei Counts (human myoblast; BMP7 25 ng/mL): 2509
- % EdU (mouse myoblast cells; BMP7 0.025 ug/mL, vehicle 10.56): 18.08%
- % EdU (mouse myoblast cells; BMP7 0.075 ug/mL, vehicle 10.56): 17.53%
- % EdU (mouse myoblast cells; BMP7 0.2255 ug/mL, vehicle 10.56): 14.93%
- % EdU (mouse myoblast cells; BMP7 0.45 ug/mL, vehicle 10.56): 12.93%
- % EdU (mouse myoblast cells; BMP7 0.9 ug/mL, vehicle 10.56): 13.91%
- % EdU (mouse myoblast cells; BMP7 1.8 ug/mL, vehicle 10.56): 10.37%
- MYF5 expression fold change compared to FM (DM1 human myoblast): 0.709
- MYOD1 expression fold change compared to FM (DM1 human myoblast): 0.709
- MYOG expression fold change compared to FM (DM1 human myoblast): 0.361
